From the supplement of paper PMC10567573

B1: C22orf31 (parent)
chain: YSLELGKAIKQKLWEALCSQGAIS

Variants of: B1
Experiment: protein stability index of a GFP-peptide fusion (GPS, HEK-293T) (PSI 1-6); higher = more stable
Settings: c terminus: a fixed tail appended
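Further: lentivirally expressed fusions sorted by FACS into six bins by GFP to DsRed ratio, PSI derived from sequencing read proportions per bin multiplied by bin number.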

Going from L17I to L17D, the protein stability index falls from 2.85 to 2.62.

First: L17R
Second: L17K
The protein stability index of the first is higher: 2.25 for the first, 2.11 for the second.

Going from L17Y to L17V, the protein stability index rises from 2.06 to 3.22.

Going from L17P to L17A, the protein stability index falls from 2.08 to 1.25.

First: L17N
Second: L17H
The protein stability index of the first is higher: 1.86 for the first, 1.47 for the second.

Going from L17C to L17M, the protein stability index falls from 3.17 to 2.88.

Going from L17Q to L17W, the protein stability index falls from 1.87 to 1.19.

Going from L17T to L17G, the protein stability index falls from 2.26 to 2.05.

Compared with L17F, L17S is higher in protein stability index: 2.17 for the first, 2.41 for the second.

Compared with L17E, A16Y is higher in protein stability index: 1.69 for the first, 1.89 for the second.

Going from A16S to A16C, the protein stability index falls from 2.54 to 2.24.

First: A16E
Second: A16W
The protein stability index of the first is lower: 1.74 for the first, 2.4 for the second.

Going from A16H to A16N, the protein stability index falls from 1.83 to 1.29.

Going from A16M to A16L, the protein stability index falls from 2.69 to 1.77.

Going from A16T to A16D, the protein stability index falls from 3.32 to 1.98.

First: A16Q
Second: A16R
The protein stability index of the first is lower: 1.89 for the first, 2.1 for the second.

First: A16P
Second: A16G
The protein stability index of the first is higher: 2.3 for the first, 2.26 for the second.

Compared with G21N, G21I is higher in protein stability index: 3.07 for the first, 4.15 for the second.

Going from G21D to G21F, the protein stability index rises from 1.94 to 2.94.

Going from G21A to K12Y, the protein stability index falls from 4.53 to 1.93.

First: K12W
Second: K12V
The protein stability index of the first is lower: 2.25 for the first, 2.49 for the second.

Compared with E15T, E15F is higher in protein stability index: 1.64 for the first, 3 for the second.

First: E15W
Second: E15G
The protein stability index of the first is higher: 1.9 for the first, 1.31 for the second.

First: E15P
Second: E15C
The protein stability index of the first is lower: 2.25 for the first, 3 for the second.

Going from E15N to E15R, the protein stability index rises from 3 to 3.18.

Going from E15K to E15S, the protein stability index falls from 2.73 to 2.19.

Compared with E15H, E15Q is lower in protein stability index: 1.65 for the first, 1.41 for the second.

First: I23M
Second: I23S
The protein stability index of the first is lower: 2.22 for the first, 2.85 for the second.

Compared with I23P, I23N is higher in protein stability index: 1.6 for the first, 1.7 for the second.

First: I23D
Second: I23A
The protein stability index of the first is lower: 1.62 for the first, 1.75 for the second.

First: I23E
Second: I23H
The protein stability index of the first is higher: 2.37 for the first, 1.63 for the second.

Compared with S24N, S24T is lower in protein stability index: 2.63 for the first, 1.83 for the second.

Compared with S24Y, S24Q is lower in protein stability index: 3.7 for the first, 2.92 for the second.

First: S24H
Second: S24A
The protein stability index of the first is lower: 2.01 for the first, 2.68 for the second.

First: S24R
Second: L13D
The protein stability index of the first is higher: 2.69 for the first, 2.37 for the second.

Compared with L13W, L13C is lower in protein stability index: 1.94 for the first, 1.35 for the second.

First: L13P
Second: L13N
The protein stability index of the first is lower: 2.04 for the first, 2.63 for the second.

Going from L13Y to L13S, the protein stability index rises from 1.56 to 2.24.

Compared with L13T, L13M is higher in protein stability index: 1.88 for the first, 2.17 for the second.

Going from L13E to L13F, the protein stability index falls from 3.05 to 1.13.

First: L13A
Second: L13Q
The protein stability index of the first is lower: 1.41 for the first, 1.92 for the second.

Compared with L13R, L13I is higher in protein stability index: 2.05 for the first, 2.33 for the second.

Going from L13G to L13K, the protein stability index falls from 1.88 to 1.47.

Compared with L13H, W14S is lower in protein stability index: 2.48 for the first, 1.85 for the second.

Compared with W14V, W14T is lower in protein stability index: 3.18 for the first, 1.98 for the second.

Compared with W14H, W14G is higher in protein stability index: 1.34 for the first, 3.06 for the second.

Compared with W14L, W14P is lower in protein stability index: 3.37 for the first, 3.34 for the second.

Going from W14A to W14Y, the protein stability index rises from 1.06 to 1.78.

Compared with W14I, W14D is lower in protein stability index: 3.71 for the first, 3.34 for the second.

First: W14M
Second: W14N
The protein stability index of the first is higher: 2.24 for the first, 2.21 for the second.

Going from W14Q to W14K, the protein stability index rises from 1.83 to 2.

First: W14C
Second: W14E
The protein stability index of the first is lower: 1.62 for the first, 2.52 for the second.

Going from S19A to S19R, the protein stability index falls from 4.18 to 2.46.

Compared with S19F, S19N is higher in protein stability index: 2.56 for the first, 3.94 for the second.

First: S19C
Second: S19Q
The protein stability index of the first is higher: 2.31 for the first, 1.95 for the second.

First: S19D
Second: Q20V
The protein stability index of the first is lower: 1.88 for the first, 2.58 for the second.

Compared with Q20R, Q20I is lower in protein stability index: 2.99 for the first, 2.97 for the second.

First: Q20N
Second: Q20P
The protein stability index of the first is lower: 1.62 for the first, 2.21 for the second.

First: Q20E
Second: Q20F
The protein stability index of the first is higher: 2.79 for the first, 1.95 for the second.

First: Q20G
Second: C18D
The protein stability index of the first is higher: 3.45 for the first, 2.09 for the second.

Going from C18G to C18I, the protein stability index rises from 1.53 to 3.32.

First: C18H
Second: C18S
The protein stability index of the first is lower: 1.66 for the first, 1.91 for the second.

Compared with C18P, C18K is higher in protein stability index: 2.26 for the first, 4.02 for the second.

Compared with C18Y, C18A is lower in protein stability index: 2.52 for the first, 1.69 for the second.

Going from C18M to C18F, the protein stability index falls from 2.12 to 1.64.

Compared with C18E, C18N is higher in protein stability index: 2.17 for the first, 3.44 for the second.

Compared with C18V, A22R is higher in protein stability index: 2.29 for the first, 3.87 for the second.

Compared with A22S, A22D is lower in protein stability index: 3.11 for the first, 1.59 for the second.

With A22K the protein stability index was 3.13.
